In this assay the target is NtRPT6-GFP (Nicotiana tabacum) (UniProt L7UU40).

Substance “XopJ-myc (from UniProt A0AB38E6N7 1-316) (natural protein)” yielded a proteasome activity (breakdown of Suc-LLVY-AMC) in total extracts of N. benthamiana leaves transiently expressing XopJ-myc, against the empty vector control of 40%.
